Residue numbers refer to the chain shown, from its start.
T1: human EphB4 extracellular region-SEAP-His protein (human, UniProt P54760 16-539)
T1 construct: extracellular domain; also called hEphB4-SEAP-His
T1 sequence (looked up): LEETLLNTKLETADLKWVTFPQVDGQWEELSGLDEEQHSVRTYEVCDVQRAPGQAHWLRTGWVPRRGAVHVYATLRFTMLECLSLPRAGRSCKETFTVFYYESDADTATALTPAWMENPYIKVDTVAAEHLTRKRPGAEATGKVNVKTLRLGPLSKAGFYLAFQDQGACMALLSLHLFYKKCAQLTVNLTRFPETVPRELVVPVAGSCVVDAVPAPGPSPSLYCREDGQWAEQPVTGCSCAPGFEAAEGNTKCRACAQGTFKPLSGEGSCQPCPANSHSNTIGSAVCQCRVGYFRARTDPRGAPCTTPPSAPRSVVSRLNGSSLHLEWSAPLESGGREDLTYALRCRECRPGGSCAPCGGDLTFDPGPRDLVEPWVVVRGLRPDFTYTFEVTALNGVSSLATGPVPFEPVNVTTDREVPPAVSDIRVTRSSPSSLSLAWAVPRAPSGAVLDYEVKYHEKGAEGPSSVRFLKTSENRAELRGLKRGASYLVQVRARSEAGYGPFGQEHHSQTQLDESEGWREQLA

T2: human EphA8 extracellular region-SEAP-His protein (human, UniProt P29322 28-542)
T2 construct: extracellular domain; also called hEphA8-SEAP-His
T2 sequence (looked up): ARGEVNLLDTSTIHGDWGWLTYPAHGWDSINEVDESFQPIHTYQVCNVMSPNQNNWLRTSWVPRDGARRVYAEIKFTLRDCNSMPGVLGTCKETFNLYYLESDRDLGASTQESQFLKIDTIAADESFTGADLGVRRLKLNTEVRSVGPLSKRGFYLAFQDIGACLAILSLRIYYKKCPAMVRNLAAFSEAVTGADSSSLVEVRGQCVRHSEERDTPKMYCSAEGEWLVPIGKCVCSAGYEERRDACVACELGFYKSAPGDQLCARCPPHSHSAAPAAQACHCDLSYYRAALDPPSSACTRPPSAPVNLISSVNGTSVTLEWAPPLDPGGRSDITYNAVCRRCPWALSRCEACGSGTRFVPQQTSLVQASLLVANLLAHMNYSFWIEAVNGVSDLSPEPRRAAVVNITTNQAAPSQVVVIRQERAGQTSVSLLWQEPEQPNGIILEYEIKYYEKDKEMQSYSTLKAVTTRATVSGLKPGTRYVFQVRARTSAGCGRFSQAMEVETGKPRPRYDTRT

T3: human EphA3 extracellular region-SEAP-His protein (human, UniProt P29320 21-541)
T3 construct: extracellular domain; also called hEphA3-SEAP-His
T3 sequence (looked up): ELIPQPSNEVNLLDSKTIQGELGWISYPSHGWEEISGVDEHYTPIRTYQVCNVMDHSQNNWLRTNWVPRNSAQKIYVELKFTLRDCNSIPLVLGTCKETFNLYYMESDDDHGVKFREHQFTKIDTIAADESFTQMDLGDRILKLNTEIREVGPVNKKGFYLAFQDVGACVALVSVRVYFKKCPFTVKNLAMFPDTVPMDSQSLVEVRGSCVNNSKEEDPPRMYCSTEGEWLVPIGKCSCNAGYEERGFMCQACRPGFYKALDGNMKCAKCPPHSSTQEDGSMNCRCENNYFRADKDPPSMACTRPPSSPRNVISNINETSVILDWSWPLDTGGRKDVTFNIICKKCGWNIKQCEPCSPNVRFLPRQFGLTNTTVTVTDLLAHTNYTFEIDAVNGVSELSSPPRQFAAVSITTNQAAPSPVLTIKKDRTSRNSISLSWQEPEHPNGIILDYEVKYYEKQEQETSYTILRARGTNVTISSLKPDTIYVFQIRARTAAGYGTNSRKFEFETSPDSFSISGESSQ

T4: human EphA7 extracellular region-SEAP-His protein (human, UniProt Q15375 28-555)
T4 construct: extracellular domain; also called hEphA7-SEAP-His
T4 sequence (looked up): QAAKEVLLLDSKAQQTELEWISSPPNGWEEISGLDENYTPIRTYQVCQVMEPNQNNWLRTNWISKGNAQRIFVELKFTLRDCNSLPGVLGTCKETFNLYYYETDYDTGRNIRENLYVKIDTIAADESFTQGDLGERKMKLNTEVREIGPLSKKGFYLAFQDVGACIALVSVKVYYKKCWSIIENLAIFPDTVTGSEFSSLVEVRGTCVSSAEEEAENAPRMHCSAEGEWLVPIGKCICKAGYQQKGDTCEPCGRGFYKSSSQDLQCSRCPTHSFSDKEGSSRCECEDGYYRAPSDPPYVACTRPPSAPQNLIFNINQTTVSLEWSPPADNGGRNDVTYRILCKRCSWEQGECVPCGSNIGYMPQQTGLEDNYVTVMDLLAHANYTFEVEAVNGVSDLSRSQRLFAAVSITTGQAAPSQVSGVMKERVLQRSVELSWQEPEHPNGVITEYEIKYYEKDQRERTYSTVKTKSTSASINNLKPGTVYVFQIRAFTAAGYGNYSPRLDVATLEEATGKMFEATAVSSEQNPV

B1: humanized antibody No. 154 (antibody, human IgG2)
heavy: QVQLVQSGSELKKPGASVKVSCKASGYTFTDYSMHWVRQAPGQGLEWMGWINTETGEPTYADDFKGRFVFSLDTSVSTAYLQISSLKAEDTAVYYCARIPLYYYGSRYWYFDVWGQGTTVTVSSASTKGPSVFPLAPSSRSTSESTAALGCLVKDYFPEPVTVSWNSGALTSGVHTFPAVLQSSGLYSLSSVVTVPSSNFGTQTYTCNVDHKPSNTKVDKTVERKSCVECPPCPAPPAAAPSVFLFPPKPKDTLMISRTPEVTCVVVDVSHEDPEVQFNWYVDGVEVHNAKTKPREEQFNSTFRVVSVLTVVHQDWLNGKEYKCKVSNKGLPAPIEKTISKTKGQPREPQVYTLPPSREEMTKNQVSLTCLVKGFYPSDIAVEWESNGQPENNYKTTPPMLDSDGSFFLYSKLTVDKSRWQQGNVFSCSVMHEALHNHYTQKSLSLSPG
light: DIQMTQSPSSLSASVGDRVTITCRASENIYRNLAWYQQKPGKAPKLLLYAATNLADGVPSRFSGSGSGTDYTLTISSLQSEDFATYYCQHFWGTPWTFGQGTKVEIKRTVAAPSVFIFPPSDEQLKSGTASVVCLLNNFYPREAKVQWKVDNALQSGNSQESVTEQDSKDSTYSLSSTLTLSKADYEKHKVYACEVTHQGLSSPVTKSFNRGEC
notes: human Ig kappa; also called L1-5/HK1
B2: humanized antibody No. 134 (antibody, human IgG2)
heavy: B1 heavy with E46K, D62Q, D63G, K65T
light: EIVMTQSPATLSVSPGERATLSCRASENIYRNLAWYQQKPGQSPRLLIYAATNLADGIPARFSGSGSGTEYTLTISSLQSEDFAVYYCQHFWGTPWTFGQGTKVEIKRTVAAPSVFIFPPSDEQLKSGTASVVCLLNNFYPREAKVQWKVDNALQSGNSQESVTEQDSKDSTYSLSSTLTLSKADYEKHKVYACEVTHQGLSSPVTKSFNRGEC
notes: human Ig kappa; also called L2-4/HA2
B3: humanized antibody No. 155 (antibody, human IgG2)
heavy: B1 heavy with V2I, E46K
light: B1 light
notes: human Ig kappa; also called L1-5/HK4
B4: humanized antibody No. 135 (antibody, human IgG2)
heavy: B1 heavy
light: B2 light
notes: human Ig kappa; also called L2-4/HK1
B5: humanized antibody No. 133 (antibody, human IgG2)
heavy: B1 heavy with D62Q, D63G, K65T
light: B2 light
notes: human Ig kappa; also called L2-4/HA1
B6: humanized antibody No. 159 (antibody, human IgG2)
heavy: B1 heavy with E46K
light: B1 light with K45Q, S80P
notes: human Ig kappa; also called L1-6/HK2
B7: humanized antibody No. 156 (antibody, human IgG2)
heavy: B1 heavy with V2I, E46K, D62Q, D63G, K65T
light: B1 light with K45Q, S80P
notes: human Ig kappa; also called L1-6/HA4
B8: humanized antibody No. 160 (antibody, human IgG2)
heavy: B1 heavy with V2I, E46K
light: B1 light with K45Q, S80P
notes: human Ig kappa; also called L1-6/HK4
B9: humanized antibody No. 158 (antibody, human IgG2)
heavy: B1 heavy with E46K, D62Q, D63G, K65T
light: B1 light with K45Q, S80P
notes: human Ig kappa; also called L1-6/HA2
B10: humanized antibody No. 157 (antibody, human IgG2)
heavy: B1 heavy with D62Q, D63G, K65T
light: B1 light with K45Q, S80P
notes: human Ig kappa; also called L1-6/HA1
B11: humanized antibody No. 132 (antibody, human IgG2)
heavy: B1 heavy with V2I, E46K, D62Q, D63G, K65T
light: B2 light
notes: human Ig kappa; also called L2-4/HA4

Target: T1, human EphB4 extracellular …
Experiment: ELISA

Row | Binder | A450 as % of hEphA4-SEAP-His
1 | B1 | 6.4%
2 | B2 | 5.1%
3 | B3 | 5.7%
4 | B4 | 5.1%
5 | B5 | 4.9%
6 | B6 | 5.4%
7 | B7 | 5.6%
8 | B8 | 6.3%
9 | B9 | 6.5%
10 | B10 | 6.5%
11 | B11 | 4.8%

Target: T2, human EphA8 extracellular …
Experiment: ELISA

Row | Binder | A450 as % of hEphA4-SEAP-His
12 | B1 | 5.5%
13 | B2 | 5.7%
14 | B3 | 5.5%
15 | B4 | 5%
16 | B5 | 4.7%
17 | B6 | 5.5%
18 | B7 | 5.5%
19 | B8 | 5.4%
20 | B9 | 6.4%
21 | B10 | 6%
22 | B11 | 4.7%

Target: T3, human EphA3 extracellular …
Experiment: ELISA

Row | Binder | A450 as % of hEphA4-SEAP-His
23 | B1 | 6.2%
24 | B2 | 5%
25 | B3 | 5.6%
26 | B4 | 5%
27 | B5 | 5%
28 | B6 | 5.4%
29 | B7 | 5.7%
30 | B8 | 6.2%
31 | B9 | 6.5%
32 | B10 | 6.4%
33 | B11 | 4.8%

Target: T5, human EphA5 extracellular region-SEAP-His protein (human, UniProt P54756 25-573)
T5 construct: extracellular domain; also called hEphA5-SEAP-His
T5 sequence (P54756 25-573): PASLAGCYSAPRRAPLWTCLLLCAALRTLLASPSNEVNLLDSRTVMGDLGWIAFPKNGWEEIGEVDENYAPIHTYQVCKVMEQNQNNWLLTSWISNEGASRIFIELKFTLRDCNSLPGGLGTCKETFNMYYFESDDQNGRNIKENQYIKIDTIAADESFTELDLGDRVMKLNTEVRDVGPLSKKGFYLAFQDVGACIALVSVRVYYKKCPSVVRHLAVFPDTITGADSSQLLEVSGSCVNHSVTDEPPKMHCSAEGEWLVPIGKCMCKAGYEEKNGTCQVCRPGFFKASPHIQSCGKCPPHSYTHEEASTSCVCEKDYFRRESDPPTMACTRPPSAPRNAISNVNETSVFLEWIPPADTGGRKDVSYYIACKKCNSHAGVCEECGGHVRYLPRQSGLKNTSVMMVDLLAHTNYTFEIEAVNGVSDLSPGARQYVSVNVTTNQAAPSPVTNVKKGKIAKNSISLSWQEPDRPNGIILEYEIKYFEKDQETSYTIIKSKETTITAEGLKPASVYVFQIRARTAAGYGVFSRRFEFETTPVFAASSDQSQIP
Experiment: ELISA

Row | Binder | A450 as % of hEphA4-SEAP-His
34 | B1 | 6.3%
35 | B2 | 5.2%
36 | B3 | 5.6%
37 | B4 | 5%
38 | B5 | 4.7%
39 | B6 | 5.5%
40 | B7 | 5.7%
41 | B8 | 6.5%
42 | B9 | 6.7%
43 | B10 | 6.1%
44 | B11 | 4.7%

Target: T6, human EphA2 extracellular region-SEAP-His protein (human, UniProt P29317 24-537)
T6 construct: extracellular domain; also called hEphA2-SEAP-His
T6 sequence (P29317 24-537): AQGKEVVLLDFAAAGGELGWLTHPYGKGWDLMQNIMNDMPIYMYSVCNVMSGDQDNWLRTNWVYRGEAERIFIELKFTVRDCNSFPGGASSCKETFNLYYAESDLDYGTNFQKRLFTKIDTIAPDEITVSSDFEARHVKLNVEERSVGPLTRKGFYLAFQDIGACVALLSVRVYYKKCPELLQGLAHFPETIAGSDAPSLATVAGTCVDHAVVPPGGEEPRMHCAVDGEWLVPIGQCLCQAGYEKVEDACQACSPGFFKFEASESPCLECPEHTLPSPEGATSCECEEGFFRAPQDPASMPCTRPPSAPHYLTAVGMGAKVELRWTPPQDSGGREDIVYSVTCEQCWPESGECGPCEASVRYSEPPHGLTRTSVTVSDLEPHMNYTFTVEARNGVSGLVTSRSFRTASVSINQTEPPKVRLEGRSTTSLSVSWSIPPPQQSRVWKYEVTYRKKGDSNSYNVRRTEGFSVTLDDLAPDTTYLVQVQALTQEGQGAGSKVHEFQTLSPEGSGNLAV
Experiment: ELISA

Row | Binder | A450 as % of hEphA4-SEAP-His
45 | B1 | 6.2%
46 | B2 | 5%
47 | B3 | 5.5%
48 | B4 | 5%
49 | B5 | 4.7%
50 | B6 | 5.4%
51 | B7 | 5.5%
52 | B8 | 6.1%
53 | B9 | 6.7%
54 | B10 | 6.3%
55 | B11 | 4.8%

Target: T4, human EphA7 extracellular …
Experiment: ELISA

Row | Binder | A450 as % of hEphA4-SEAP-His
56 | B1 | 6.3%
57 | B2 | 5.1%
58 | B3 | 5.6%
59 | B4 | 5.2%
60 | B5 | 4.6%
61 | B6 | 5.5%
62 | B7 | 5.6%
63 | B8 | 6.1%
64 | B9 | 6.3%
65 | B10 | 6%
66 | B11 | 4.5%
